Measured values: patent US7556950 (Takeda / Millennium, dated 2009)

Biological target: the molecule itself
Experiment: analytical size-exclusion chromatography; self-association (homodimer) of the purified catalytic domain

B1: recombinant catalytic domain of human phosphodiesterase 4-D3 (PDE4-D3), residues 253-580 of SEQ. ID No. 1, after removal of the N-terminal 6x-histidine tag … (enzyme)
chain: GAMDPTEQEDVLAKELEDVNKWGLHVFRIAELSGNRPLTVIMHTIFQERDLLKTFKIPVDTLITYLMTLEDHYHADVAYHNNIHAADVVQSTHVLLSTPALEAVFTDLEILAAIFASAIHDVDHPGVSNQFLINTNSELALMYNDSSVLENHHLAVGFKLLQEENCDIFQNLTKKQRQSLRKMVIDIVLATDMSKHMNLLADLKTMVETKKVTSSGVLLLDNYSDRIQVLQNMVHCADLSNPTKPLQLYRQWTDRIMEEFFRQGDRERERGMEISPMCDKHNASVEKSQVGFIDYIVHPLWETWADLVHPDAQDILDTLEDNREWYQSTIPQSP
notes: The limits 24-357 come from the claims, which define the protein of the Rolipram complex this way; The purified protein was buffer-exchanged with a 2-molar excess of the small molecule Rolipram; Expressed in Hi5 insect cells; also called PDE4D3 catalytic domain; purified PDE4-D3
B1: binds.
